Data set [1] deals with the molecule itself. Nature of the data set: not stated; oligomeric state of the UVR8 mutants without UV-B; method not given; UVR8 lysis buffer (150 mM NaCl, 25 mM Tris, pH 8.0), room temperature.
Data set [2] deals with the molecule itself. In words: SEC; Superdex200 size column run after the sub-nanosecond TCSPC measurements (290 nm pulsed LED, 10 uM samples); dimer to monomers. In general terms: Size exclusion chromatography separates by hydrodynamic size, large species first.

Positions count from the first letter of the chain named. In names and notes the source's numbering stands.

B1: UVR8 mutant 6Wd + 3Wp (all four tryptophans of the 4Wc pyramid center changed to phenylalanine, on the W400F template) (receptor, Arabidopsis thaliana, UniProt Q9FN03 1-440, looked up)
chain: MAEDMAADEVTAPPRKVLIISAGASHSVALLSGDIVCSWGRGEDGQLGHGDAEDRPSPTQLSALDGHQIVSVTCGADHTVAYSQSGMEVYSWGFGDFGRLGHGNSSDLFTPLPIKALHGIRIKQIACGDSHCLAVTMEGEVQSWGRNQNGQLGLGDTEDSLVPQKIQAFEGIRIKMVAAGAEHTAAVTEDGDLYGWGWGRYGNLGLGDRTDRLVPERVTSTGGEKMSMVACGFRHTISVSYSGALYTYGWSKYGQLGHGDLEDHLIPHKLEALSNSFISQISGGFRHTMALTSDGKLYGWGWNKFGQVGVGNNLDQCSPVQVRFPDDQKVVQVSCGFRHTLAVTERNNVFAWGRGTNGQLGIGESVDRNFPKIIEALSVDGASGQHIESSNIDPSSGKSFVSPAERYAVVPDETGLTDGSSKGNGGDISVPQTDVKRVRI
notes: UVR8, Arabidopsis thaliana; W400F template
Consider B1, for which, in data set [1], the “stoichiometry N” value came out at 2.

B2: Arabidopsis thaliana UVR8 (UV … LOCUS 8) W400F, redefined as wild type (WT) (receptor, UniProt Q9FN03 1-440, looked up)
chain: B1 chain with F94W, F233W, F285W, F337W
notes: UVR8, Arabidopsis thaliana; the construct holds residue 400 (W400F); also called UVR8 WT
B2: in data set [2], the binding result is reported as “binds”.

In general, stoichiometry N refers to a count of units in the complex or per binding partner.

The values above are taken from PMC7455749, “A leap in quantum efficiency through light harvesting in photoreceptor UVR8” (Nature Communications, 2020).
